# In patent US20230002480A1:
# How the values were obtained:
# Experiment in all cases: cell-based or functional assay
# [1] = molecular target: HIV-1 Env of pseudovirus 1054_07_TC4_1499 (HIV-1)
# [2] = molecular target: HIV-1 Env of pseudovirus 231965.c01 (HIV-1)
# [3] = molecular target: HIV-1 Env of pseudovirus 235-47 (HIV-1)
# [4] = molecular target: HIV-1 Env of pseudovirus 3365.v2.c2 (HIV-1)
# [5] = molecular target: HIV-1 Env of pseudovirus 3817.v2.c59 (HIV-1)
# [6] = molecular target: HIV-1 Env of pseudovirus 6041.v3.c23 (HIV-1)
# [7] = molecular target: HIV-1 Env of pseudovirus 62357_14_D3_4589 (HIV-1)
# [8] = molecular target: HIV-1 Env of pseudovirus 6480.v4.c25 (HIV-1)
# [9] = molecular target: HIV-1 Env of pseudovirus 6540.v4.c1 (HIV-1)
# [10] = molecular target: HIV-1 Env of pseudovirus 6952.v1.c20 (HIV-1)
# [11] = molecular target: HIV-1 Env of pseudovirus A07412M1.vrc12 (HIV-1)
# [12] = molecular target: HIV-1 Env of pseudovirus BJOX025000.01.1 (HIV-1)
# [13] = molecular target: HIV-1 Env of pseudovirus BJOX028000.10.3 (HIV-1)
# [14] = molecular target: HIV-1 Env of pseudovirus C3347.c11 (HIV-1)
# [15] = molecular target: HIV-1 Env of pseudovirus CNE20 (HIV-1)
# [16] = molecular target: HIV-1 Env of pseudovirus CNE30 (HIV-1)
# [17] = molecular target: HIV-1 Env of pseudovirus CNE5 (HIV-1)
# [18] = molecular target: HIV-1 Env of pseudovirus CNE58 (HIV-1)
# [19] = molecular target: HIV-1 Env of pseudovirus Ce0393_C3 (HIV-1)
# [20] = molecular target: HIV-1 Env of pseudovirus Ce0682_E4 (HIV-1)
# [21] = molecular target: HIV-1 Env of pseudovirus Ce1086_B2 (HIV-1)
# [22] = molecular target: HIV-1 Env of pseudovirus Ce1176_A3 (HIV-1)
# [23] = molecular target: HIV-1 Env of pseudovirus Ce704809221_1B3 (HIV-1)
# [24] = molecular target: HIV-1 Env of pseudovirus Du172.17 (HIV-1)
# [25] = molecular target: HIV-1 Env of pseudovirus HIV-16055-2.3 (HIV-1)
# [26] = molecular target: HIV-1 Env of pseudovirus SC05_8C11_2344 (HIV-1)
# [27] = molecular target: HIV-1 Env of pseudovirus SC422661.8 (HIV-1)
# [28] = molecular target: HIV-1 Env of pseudovirus X1254_c3 (HIV-1)
# [29] = molecular target: HIV-1 Env of pseudovirus X1632_S2_B10 (HIV-1)
# [30] = molecular target: HIV-1 Env of pseudovirus X2088_c9 (HIV-1)
# [31] = molecular target: HIV-1 Env of pseudovirus X2131_C1_B5 (HIV-1)
# [32] = molecular target: HIV-1 Env of pseudovirus ZM109F.PB4 (HIV-1)
# [33] = molecular target: HIV-1 Env of pseudovirus ZM197M.PB7 (HIV-1)
# [34] = molecular target: HIV-1 Env of pseudovirus ZM214M.PL15 (HIV-1)
# [35] = molecular target: HIV-1 Env of pseudovirus ZM233M.PB6 (HIV-1)
# [36] = molecular target: HIV-1 Env of pseudovirus ZM53M.PB12 (HIV-1)
substance,measurement,setting,value
NIH 45-46 (antibody),neutralization IC50,[1],0.07 µg/mL
same,neutralization IC80,[1],0.61 µg/mL
same,"IC50, titer in TZM.bl cells",[2],0.1 µg/mL
same,"IC80, titer in TZM.bl cells",[2],0.1 µg/mL
same,"IC50, titer in TZM.bl cells",[3],0.3 µg/mL
same,"IC80, titer in TZM.bl cells",[3],1.49 µg/mL
same,neutralization IC50,[4],0.11 µg/mL
same,neutralization IC80,[4],0.11 µg/mL
same,"IC50, titer in TZM.bl cells",[5],> 50 µg/mL
same,"IC80, titer in TZM.bl cells",[5],> 50 µg/mL
same,"IC50, titer in TZM.bl cells",[6],0.01 µg/mL
same,"IC80, titer in TZM.bl cells",[6],0.04 µg/mL
same,neutralization IC50,[7],0.05 µg/mL
same,neutralization IC80,[7],0.22 µg/mL
same,"IC50, titer in TZM.bl cells",[8],0.02 µg/mL
same,"IC80, titer in TZM.bl cells",[8],0.08 µg/mL
same,"IC50, titer in TZM.bl cells",[9],> 50 µg/mL
same,"IC80, titer in TZM.bl cells",[9],> 50 µg/mL
same,"IC50, titer in TZM.bl cells",[10],0.02 µg/mL
same,"IC80, titer in TZM.bl cells",[10],0.07 µg/mL
same,"IC50, titer in TZM.bl cells",[11],0.03 µg/mL
same,"IC80, titer in TZM.bl cells",[11],0.13 µg/mL
same,"IC50, titer in TZM.bl cells",[12],0.18 µg/mL
same,"IC80, titer in TZM.bl cells",[12],10 µg/mL
same,"IC50, titer in TZM.bl cells",[13],0.07 µg/mL
same,"IC80, titer in TZM.bl cells",[13],> 50 µg/mL
same,"IC50, titer in TZM.bl cells",[14],0.03 µg/mL
same,"IC80, titer in TZM.bl cells",[14],0.18 µg/mL
same,neutralization IC50,[15],8.71 µg/mL
same,neutralization IC80,[15],47 µg/mL
same,neutralization IC50,[16],0.34 µg/mL
same,neutralization IC80,[16],1.48 µg/mL
same,"IC50, titer in TZM.bl cells",[17],0.09 µg/mL
same,"IC80, titer in TZM.bl cells",[17],0.41 µg/mL
same,neutralization IC50,[18],0.25 µg/mL
same,neutralization IC80,[18],1.49 µg/mL
same,neutralization IC50,[19],0.32 µg/mL
same,neutralization IC80,[19],1.07 µg/mL
same,neutralization IC50,[20],0.07 µg/mL
same,neutralization IC80,[20],0.25 µg/mL
same,neutralization IC50,[21],0.04 µg/mL
same,neutralization IC80,[21],0.28 µg/mL
same,neutralization IC50,[22],1.29 µg/mL
same,neutralization IC80,[22],5.55 µg/mL
same,neutralization IC50,[23],0.15 µg/mL
same,neutralization IC80,[23],0.88 µg/mL
same,neutralization IC50,[24],> 30 µg/mL
same,neutralization IC80,[24],> 30 µg/mL
same,neutralization IC50,[25],0.02 µg/mL
same,neutralization IC80,[25],0.06 µg/mL
same,neutralization IC50,[26],0.14 µg/mL
same,neutralization IC80,[26],0.38 µg/mL
same,neutralization IC50,[27],0.01 µg/mL
same,neutralization IC80,[27],0.07 µg/mL
same,"IC50, titer in TZM.bl cells",[28],0.08 µg/mL
same,"IC80, titer in TZM.bl cells",[28],0.08 µg/mL
same,"IC50, titer in TZM.bl cells",[29],0.07 µg/mL
same,"IC80, titer in TZM.bl cells",[29],> 50 µg/mL
same,"IC50, titer in TZM.bl cells",[30],> 50 µg/mL
same,"IC80, titer in TZM.bl cells",[30],> 50 µg/mL
same,"IC50, titer in TZM.bl cells",[31],0.2 µg/mL
same,"IC80, titer in TZM.bl cells",[31],0.9 µg/mL
same,neutralization IC50,[32],0.22 µg/mL
same,neutralization IC80,[32],0.22 µg/mL
same,neutralization IC50,[33],0.14 µg/mL
same,neutralization IC80,[33],0.64 µg/mL
same,neutralization IC50,[34],0.05 µg/mL
same,neutralization IC80,[34],0.39 µg/mL
same,neutralization IC50,[35],1.86 µg/mL
same,neutralization IC80,[35],16.5 µg/mL
same,neutralization IC50,[36],0.65 µg/mL
same,neutralization IC80,[36],0.65 µg/mL
3BNC117 (antibody),neutralization IC50,[1],0.07 µg/mL
same,neutralization IC80,[1],0.49 µg/mL
same,"IC50, titer in TZM.bl cells",[2],0.05 µg/mL
same,"IC80, titer in TZM.bl cells",[2],0.22 µg/mL
same,"IC50, titer in TZM.bl cells",[3],0.03 µg/mL
same,"IC80, titer in TZM.bl cells",[3],0.12 µg/mL
same,neutralization IC50,[4],0.03 µg/mL
same,neutralization IC80,[4],0.1 µg/mL
same,"IC50, titer in TZM.bl cells",[5],0.15 µg/mL
same,"IC80, titer in TZM.bl cells",[5],0.52 µg/mL
same,"IC50, titer in TZM.bl cells",[6],0.01 µg/mL
same,"IC80, titer in TZM.bl cells",[6],0.07 µg/mL
same,neutralization IC50,[7],0.06 µg/mL
same,neutralization IC80,[7],0.26 µg/mL
same,"IC50, titer in TZM.bl cells",[8],0.01 µg/mL
same,"IC80, titer in TZM.bl cells",[8],0.04 µg/mL
same,"IC50, titer in TZM.bl cells",[9],> 50 µg/mL
same,"IC80, titer in TZM.bl cells",[9],> 50 µg/mL
same,"IC50, titer in TZM.bl cells",[10],0.15 µg/mL
same,"IC80, titer in TZM.bl cells",[10],0.75 µg/mL
same,"IC50, titer in TZM.bl cells",[11],0.02 µg/mL
same,"IC80, titer in TZM.bl cells",[11],0.1 µg/mL
same,"IC50, titer in TZM.bl cells",[12],0.05 µg/mL
same,"IC80, titer in TZM.bl cells",[12],0.2 µg/mL
same,"IC50, titer in TZM.bl cells",[13],0.01 µg/mL
same,"IC80, titer in TZM.bl cells",[13],0.05 µg/mL
same,"IC50, titer in TZM.bl cells",[14],0.03 µg/mL
same,"IC80, titer in TZM.bl cells",[14],0.13 µg/mL
same,neutralization IC50,[15],> 50 µg/mL
same,neutralization IC80,[15],> 50 µg/mL
same,neutralization IC50,[16],0.26 µg/mL
same,neutralization IC80,[16],0.85 µg/mL
same,"IC50, titer in TZM.bl cells",[17],0.28 µg/mL
same,"IC80, titer in TZM.bl cells",[17],1.28 µg/mL
same,neutralization IC50,[18],0.25 µg/mL
same,neutralization IC80,[18],2.03 µg/mL
same,neutralization IC50,[19],0.2 µg/mL
same,neutralization IC80,[19],0.67 µg/mL
same,neutralization IC50,[20],0.03 µg/mL
same,neutralization IC80,[20],0.15 µg/mL
same,neutralization IC50,[21],0.09 µg/mL
same,neutralization IC80,[21],0.31 µg/mL
same,neutralization IC50,[22],0.22 µg/mL
same,neutralization IC80,[22],0.75 µg/mL
same,neutralization IC50,[23],0.08 µg/mL
same,neutralization IC80,[23],0.31 µg/mL
same,neutralization IC50,[24],1.19 µg/mL
same,neutralization IC80,[24],8.9 µg/mL
same,neutralization IC50,[25],5.6 µg/mL
same,neutralization IC80,[25],> 50 µg/mL
same,neutralization IC50,[26],0.15 µg/mL
same,neutralization IC80,[26],0.51 µg/mL
same,neutralization IC50,[27],0.02 µg/mL
same,neutralization IC80,[27],0.08 µg/mL
same,"IC50, titer in TZM.bl cells",[28],0.08 µg/mL
same,"IC80, titer in TZM.bl cells",[28],0.27 µg/mL
same,"IC50, titer in TZM.bl cells",[29],15.7 µg/mL
same,"IC80, titer in TZM.bl cells",[29],> 50 µg/mL
same,"IC50, titer in TZM.bl cells",[30],> 50 µg/mL
same,"IC80, titer in TZM.bl cells",[30],> 50 µg/mL
same,"IC50, titer in TZM.bl cells",[31],0.43 µg/mL
same,"IC80, titer in TZM.bl cells",[31],1.96 µg/mL
same,neutralization IC50,[32],0.14 µg/mL
same,neutralization IC80,[32],0.88 µg/mL
same,neutralization IC50,[33],0.22 µg/mL
same,neutralization IC80,[33],1.03 µg/mL
same,neutralization IC50,[34],0.06 µg/mL
same,neutralization IC80,[34],0.52 µg/mL
same,neutralization IC50,[35],0.13 µg/mL
same,neutralization IC80,[35],0.85 µg/mL
same,neutralization IC50,[36],0.21 µg/mL
same,neutralization IC80,[36],0.85 µg/mL
